Test results published in patent US20250215092A1 (ZHEJIANG NANOMAB TECHNOLOGY CENTER, published 2025).
Numbering of substitutions follows the chain as printed. Each block holds one binder with its values, some of them ahead of it.

Target: T1, human EGFR.His antigen (Acro, Cat #EGR-H522a) (human, UniProt P00533 25-645)
T1 construct: extracellular domain; Bought protein; also called EGFR his tag protein; full-length EGFR extracellular domain protein; not shown: His tag
Experiment: SPR, human EGFR.His

Kd: 18 nM
koff: 0.0087 s⁻¹
kon: 480000 M⁻¹ s⁻¹
B1: E008.1 (VHH)
VHH: EVQLVESGGGLVQPGGSLRLSCAASGLPLLDYAIGWFRQAPGKEREAVSAISISEGSTYYTDSVRGRFTISRDNSKNTVYLQMNSLRAEDTAVYYCAADKTDIGFWLLVGGAGGGEVRYEYWGQGTQVTVSS
notes: Humanized VHH; also called humanized variant of E008

Kd: 24 nM
koff: 0.012 s⁻¹
kon: 510000 M⁻¹ s⁻¹
B2: E008.5 (VHH)
VHH: B1 VHH with T78K
notes: as for B1

Kd: 5.8 nM
koff: 0.028 s⁻¹
kon: 4.9e+06 M⁻¹ s⁻¹
B3: E008.3 (VHH)
VHH: B1 VHH with Q82R
notes: as for B1

Kd: 21 nM
koff: 0.0093 s⁻¹
kon: 450000 M⁻¹ s⁻¹
B4: E008.4 (VHH)
VHH: B1 VHH with S75N
notes: as for B1

Kd: 82 nM
koff: 0.029 s⁻¹
kon: 360000 M⁻¹ s⁻¹
B5: E008.10 (VHH)
VHH: B1 VHH with A24S, T78K, Q82R
notes: as for B1

Kd: 40 nM
koff: 0.021 s⁻¹
kon: 540000 M⁻¹ s⁻¹
B6: E008.2 (VHH)
VHH: B1 VHH with T78K, V79L
notes: as for B1

Kd: 32 nM
koff: 0.013 s⁻¹
kon: 430000 M⁻¹ s⁻¹
B7: E008.6 (VHH)
VHH: B1 VHH with S75N, T78K
notes: as for B1

Kd: 25 nM
koff: 0.012 s⁻¹
kon: 490000 M⁻¹ s⁻¹
B8: E008.9 (VHH)
VHH: B1 VHH with R45L, S75N, T78K
notes: as for B1

Kd: 5 nM
koff: 0.00039 s⁻¹
kon: 78000 M⁻¹ s⁻¹
B9: E002.1 (VHH)
VHH: EVQLVESGGGLVQPGGSLRLSCAASGFTFSDYAVSWYRQAPGKEREFVSRITGTGETSRYEDSVKGRFTISRDNSKNTAYLQMNSLRAEDTAVYYCSIYHPPRDYWGQGTQVTVSS
notes: Humanized VHH; also called humanized variant of E002

Kd: 11 nM
koff: 0.00045 s⁻¹
kon: 43000 M⁻¹ s⁻¹
B10: E002.4 (VHH)
VHH: B9 VHH with S49A
notes: as for B9

Kd: 11 nM
koff: 0.00046 s⁻¹
kon: 40000 M⁻¹ s⁻¹
B11: E002.7 (VHH)
VHH: B9 VHH with S49A, T69A, S75V
notes: as for B9

Kd: 13 nM
koff: 0.00055 s⁻¹
kon: 43000 M⁻¹ s⁻¹
B12: E002.5 (VHH)
VHH: B9 VHH with S49A, S75V
notes: as for B9

Kd: 5.1 nM
koff: 0.00068 s⁻¹
kon: 130000 M⁻¹ s⁻¹
B13: E002.2 (VHH)
VHH: B9 VHH with S75V
notes: as for B9

Kd: 9.4 nM
koff: 0.00038 s⁻¹
kon: 40000 M⁻¹ s⁻¹
B14: E002.6 (VHH)
VHH: B9 VHH with S49A, T69A
notes: as for B9

Kd: 3.3 nM
koff: 3.5e-05 s⁻¹
kon: 11000 M⁻¹ s⁻¹
B15: E005.1 (VHH)
VHH: QVQLVESGGGLVKPGGSLRLSCAASGFAFSDYTMRWHRQAAGKELELVSYITSAGDIIKYANSVRGRFTISRDNAKNTLYLQMNSLRAEDTAVYRCNALVSASVRASDYWGQGTLVTVSS
notes: Humanized VHH; also called humanized variant of E005

Kd: 2.5 nM
koff: 4.1e-05 s⁻¹
kon: 16000 M⁻¹ s⁻¹
B16: E005.6 (VHH)
VHH: B15 VHH with S49A, T52S
notes: as for B15

Kd: 0.74 nM
koff: 1.1e-05 s⁻¹
kon: 15000 M⁻¹ s⁻¹
B17: E005.5 (VHH)
VHH: B15 VHH with A41P, S49A
notes: as for B15

Kd: 0.71 nM
koff: 2.5e-06 s⁻¹
kon: 3500 M⁻¹ s⁻¹
B18: E005.7 (VHH)
VHH: B15 VHH with A41P, S49A, T78S
notes: as for B15

Kd: 1.2 nM
koff: 2.1e-05 s⁻¹
kon: 18000 M⁻¹ s⁻¹
B19: E005.2 (VHH)
VHH: B15 VHH with S49A, T78S
notes: as for B15

Kd: 4.8 nM
koff: 9.6e-06 s⁻¹
kon: 2000 M⁻¹ s⁻¹
B20: E005.4 (VHH)
VHH: B15 VHH with A41P, T78S
notes: as for B15

Kd: 2.1 nM
koff: 2.7e-05 s⁻¹
kon: 13000 M⁻¹ s⁻¹
B21: E005.8 (VHH)
VHH: B15 VHH with A23E, S49A
notes: as for B15

Kd: 2.7 nM
koff: 1.7e-05 s⁻¹
kon: 6100 M⁻¹ s⁻¹
B22: E005.3 (VHH)
VHH: B15 VHH with S49A
notes: as for B15

Kd: 39 nM
koff: 0.00079 s⁻¹
kon: 20000 M⁻¹ s⁻¹
B23: E006.1 (VHH)
VHH: EVQLVESGGGLVQPGGSLRLSCAASGFTFDTYTTSWERQAPGKEREMVAVLATTGGKPYYVESVKGRFTISRDNSKNTVYLQMNSLRAEDTAVYYCKATSRSPVNPHNYSGQGTLVTVSS
notes: Humanized VHH; also called humanized variant of E006

Kd: 18 nM
koff: 0.0004 s⁻¹
kon: 22000 M⁻¹ s⁻¹
B24: E006.3 (VHH)
VHH: B23 VHH with N74A, K76E
notes: as for B23

Kd: 15 nM
koff: 0.0004 s⁻¹
kon: 27000 M⁻¹ s⁻¹
B25: E006.8 (VHH)
VHH: B23 VHH with A23T, A49S, N74A, K76E, T78A, Y80T
notes: as for B23

Kd: 41 nM
koff: 0.00072 s⁻¹
kon: 17000 M⁻¹ s⁻¹
B26: E006.2 (VHH)
VHH: B23 VHH with N74A
notes: as for B23

Kd: 14 nM
koff: 0.00033 s⁻¹
kon: 24000 M⁻¹ s⁻¹
B27: E006.7 (VHH)
VHH: B23 VHH with A49S, N74A, K76E, T78A
notes: as for B23

Kd: 13 nM
koff: 0.00031 s⁻¹
kon: 24000 M⁻¹ s⁻¹
B28: E006.5 (VHH)
VHH: B23 VHH with N74A, K76E, T78A, S85N
notes: as for B23

Kd: 13 nM
koff: 0.00032 s⁻¹
kon: 25000 M⁻¹ s⁻¹
B29: E006.4 (VHH)
VHH: B23 VHH with N74A, K76E, T78A
notes: as for B23

Kd: 11 nM
koff: 0.00032 s⁻¹
kon: 29000 M⁻¹ s⁻¹
B30: E006.6 (VHH)
VHH: B23 VHH with N74A, K76E, T78A, Y80T, S85N
notes: as for B23
